Our source for the stoichiometry N values is article PMC10050374.

“And” between values parts separate entries of the source, which are not always exact repeats. Identical values can stand only once.

In this experiment the target is pyruvate kinase M2 (mouse (endogenous in kidney tissue)) (UniProt P52480). Description: cross-linking; mouse kidney tissue incubated in 250 uM disuccinimidyl suberate (DSS) for 30 min at room temperature, 8% SDS-PAGE, Western blot for PKM2; control mice, HFD-STZ-induced DN mice, and mice given acrolein scavengers (NAC, hydralazine, carnosine). In general terms: Immunoblotting shows a protein as a band on a membrane.

Usually stoichiometry N stands for the number of molecules, sites or subunits per partner or assembly.

Chain of pyruvate kinase M2, P52480 1-531 (enzyme) (P52480 whole entry): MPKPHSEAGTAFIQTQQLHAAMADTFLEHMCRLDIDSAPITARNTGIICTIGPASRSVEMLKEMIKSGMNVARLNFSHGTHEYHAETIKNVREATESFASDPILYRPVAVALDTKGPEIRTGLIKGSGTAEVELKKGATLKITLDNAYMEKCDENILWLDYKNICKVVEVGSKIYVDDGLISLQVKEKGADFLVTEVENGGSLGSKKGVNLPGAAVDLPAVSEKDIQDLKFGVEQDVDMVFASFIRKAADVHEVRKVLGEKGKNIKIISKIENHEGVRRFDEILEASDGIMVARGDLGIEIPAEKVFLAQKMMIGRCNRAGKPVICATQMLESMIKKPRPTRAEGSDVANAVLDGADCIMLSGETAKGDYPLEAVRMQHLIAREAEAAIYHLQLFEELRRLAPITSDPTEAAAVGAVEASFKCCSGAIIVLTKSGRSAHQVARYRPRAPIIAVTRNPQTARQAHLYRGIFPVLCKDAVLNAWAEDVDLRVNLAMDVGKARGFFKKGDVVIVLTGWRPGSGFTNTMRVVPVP

Regarding “pyruvate kinase M2, P52480 1-531 (enzyme)”, the stoichiometry N was 2 and 4.
